Measurements published in publication PMC7021776, “Heme binding of transmembrane signaling proteins undergoing regulated intramembrane proteolysis” (Communications Biology, 2020).

B1: MBP-TNFα-NTF(1–76) (domain or fragment, human, UniProt P01375 1-76, looked up)
chain: MSTESMIRDVELAEEALPKKTGGPQGSRRCLFLSLFSFLIVAGATTLFCLLHFGVIGPQREEFPRDLSLISPLAQA
notes: also called TNFα-NTF(1–76) wt; MBP-TNFα(1–76); source: E. coli NEB Express (pMalC5X), membrane fraction solubilised with Triton X-100, purified (amylose); not shown: MBP, N-terminal, kept
B2: TNFα-NTF(1–47) (domain or fragment, human, UniProt P01375 1-47, looked up)
chain: MSTESMIRDVELAEEALPKKTGGPQGSRRCLFLSLFSFLIVAGATTL
notes: The text names it without MBP; source: E. coli NEB Express (pMalC5X), membrane fraction solubilised with Triton X-100, purified (amylose); not shown: MBP, N-terminal, kept
B3: TNFα-NTF(1–51) (domain or fragment, human, UniProt P01375 1-51, looked up)
chain: MSTESMIRDVELAEEALPKKTGGPQGSRRCLFLSLFSFLIVAGATTLFCLL
notes: as for B2

Target: the molecule itself
Test: SEC; gel filtration of purified MBP fusion proteins, Superose 6 Increase 10/300 GL, 4 °C, TN buffer (50 mM Tris/HCl pH 7.4, 150 mM NaCl) with 0.1% Triton X-100; growth medium with or without δ-aminolevulinic acid

| Protein | stoichiometry N | binding result |
| --- | --- | --- |
| B1 | 3 |  |
| B2 | 2 |  |
| B3 |  | binds |
